Here are results for 6 substances from paper PMC9294072.

Read-outs that look alike come from different tables or passages of the source.

Assay [1] addresses human N-terminal acetyltransferase D (hNatD) (human) (UniProt Q86UY6).
The target is the same in assay [2]. The source holds these as a separate data set.
Assay [3] shares this target. This is another data set of the same source.

Regarding “oncohistone H4/H2A pentapeptide R3H (from UniProt P62805 2-6)”, in assay [1], the kcat/Km of Nα-acetylation by hNatD (continuous fluorescence assay) came out at 4830 M⁻¹ s⁻¹.
Turning to “oncohistone H4/H2A pentapeptide G4D (from UniProt P62805 2-6)”, the kcat/Km of Nα-acetylation by hNatD (continuous fluorescence assay) in assay [2] stood at 483 M⁻¹ s⁻¹.
With “oncohistone H4/H2A pentapeptide R3Q (from UniProt P62805 2-6)”, in assay [1], the kcat/Km of Nα-acetylation by hNatD (continuous fluorescence assay) was 157 M⁻¹ s⁻¹.
Take “oncohistone H4/H2A pentapeptide S1L (from UniProt P62805 2-6)”: the kcat/Km of Nα-acetylation by hNatD (continuous fluorescence assay) in assay [3] turned out to be 4.17 M⁻¹ s⁻¹.
On to “oncohistone H4/H2A pentapeptide G4V (from UniProt P62805 2-6)”, for which the kcat/Km of Nα-acetylation by hNatD (continuous fluorescence assay) in assay [2] was 3500 M⁻¹ s⁻¹.
On to “oncohistone H4/H2A pentapeptide R3C (SGCGK)”, for which, in assay [1], the kcat/Km of Nα-acetylation by hNatD (MALDI-MS assay) came out at 1830 M⁻¹ s⁻¹.
